Results reported in paper PMC2850172.

Substrate: O=c1ccn([C@@H]2O[C@H](COP(=O)(O)OP(=O)(O)O[C@H]3OC[C@@H](O)[C@H](O)[C@H]3O)[C@@H](O)[C@H]2O)c(=O)[nH]1
Experiment: cells, lysate or membranes
Details: Pichia-expressed; conditions not stated

B1: Pichia-expressed form of XT-I (Homo sapiens) (protein)
chain: PKCDISGKEAISALSRAKSKHCRQEIGETYCRHKLGLLMPEKVTRFCPLEGKANKNVQWDEDSVEYMPANPVRIAFVLVVHGRASRQLQRMFKAIYHKDHFYYIHVDKRSNYLHRQVLQVSRQYSNVRVTPWRMATIWGGASLLSTYLQSMRDLLEMTDWPWDFFINLSAADYPIRTNDQLVAFLSRYRDMNFLKSHGRDNARFIRKQGLDRLFLECDAHMWRLGDRRIPEGIAVDGGSDWFLLNRRFVEYVTFSTDDLVTKMKQFYSYTLLPAESFFHTVLENSPHCDTMVDNNLRITNWNRKLGCKCQYKHIVDWCGCSPNDFKPQDFHRFQQTARPTFFARKFEAVVNQEIIGQLDYYLYGNYPAGTPGLRSYWENVYDEPDGIHSLSDVTLTLYHSFARLGLRRAETSLHTDGENSCRYYPMGHPASVHLYFLADRFQGFLIKHHATNLAVSKLETLETWVMPKKVFKIASPPSDFGRLQFSEVGTDWDAKERLFRNFGGLLGPMDEPVGMQKWGKGPNVTVTVIWVDPVNVIAATYDILIESTAEFTHYKPPLNLPLRPGVWTVKILHHWVPVAETKFLVAPLTFSNRQPIKPEEALKLHNGPLRNAYMEQSFQSLNPVLSLPINPAQVEQARRNAASTGTALEGWLDSLVGGMWTAMDICATGPTACPVMQTCSQTAWSSFSPDPKSELGAVKPDGRLR
Km: 300 µM
